Data taken from US11827885.

T1: Murine RNase Inhibitor (New England Biolabs, Ipswich, MA), Q91VI7
T1 chain: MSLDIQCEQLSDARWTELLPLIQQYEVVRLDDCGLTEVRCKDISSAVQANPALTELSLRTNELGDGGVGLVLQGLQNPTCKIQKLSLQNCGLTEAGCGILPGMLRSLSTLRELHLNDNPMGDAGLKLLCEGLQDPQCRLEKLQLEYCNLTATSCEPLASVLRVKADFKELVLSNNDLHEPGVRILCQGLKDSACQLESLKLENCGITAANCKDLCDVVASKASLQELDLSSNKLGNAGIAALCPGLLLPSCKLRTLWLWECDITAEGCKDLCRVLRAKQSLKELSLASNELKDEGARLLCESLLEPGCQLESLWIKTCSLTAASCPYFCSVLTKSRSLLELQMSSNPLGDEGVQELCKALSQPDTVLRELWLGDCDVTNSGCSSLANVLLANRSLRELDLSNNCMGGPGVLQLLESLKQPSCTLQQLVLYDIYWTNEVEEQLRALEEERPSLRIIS


Experiments:
RNase A = RNase A (UniProt P61823); assay: cell-based or functional assay
[1] = biological target: T1, Murine RNase Inhibitor (New England …)

Row | inhibition of RNA degradation (gel), reaction at 60° C. (RNase A) | Molecule | RNA digestion (fluorescence of RNaseAlert RNA substrate, 37° C., 90 minutes) [1]
1 | < 50% | SUPERase-In (ThermoFisher Scientific, Waltham, MA) | 
2 |  | RNase A (protein) KETAAAKFERQHMDSSTSAASSSNYCNQMMKSRNLTKDRCKPVNTFVHESLADVQAVCSQKNVACKNGQTNCYQSYSTMSITDCRETGSSKYPNCAYKTTQANKHIIVACEGNPYVPVHFDASV | Three RNase A aptamers and Murine RNase Inhibitor are able to inhibit RNA digestion, but Murine Inhibitor show a slows a loss in RNase inhibition over time
